These results are taken from article PMC3729709.

The target in this test is recombinant soluble trimeric gp140 from the clade A Ugandan HIV-1 field isolate 94UG018 (HIV-1 clade A isolate 94UG018). In words: SEC; final gel filtration on an SD200 column equilibrated with PBS; fractions corresponding to the gp140 trimer collected and pooled.

As to “recombinant soluble trimeric gp140 from the clade A Ugandan HIV-1 field isolate 94UG018 (natural protein)”, the stoichiometry N stood at 3.
